Experimental findings from publication PMC6958441, “Role of the Metal Center in the Modulation of the Aggregation Process of Amyloid Model Systems by Square Planar Complexes Bearing 2-(2′-pyridyl)benzimidazole Ligands” (Pharmaceuticals, 2019) are described below.

This data set concerns the molecule itself. Briefly: ESI-MS; peptide alone (control) at 100 µM in 15 mM ammonium acetate pH 6.8, 25 °C, direct injection, Q-ToF; the dimer is also seen in the samples with the metal complexes 1-3.

B1: NPM1_(264–277), fragment corresponding to the 2nd helix (residues 264–277) of the C-terminal domain of nucleophosmin 1 (peptide)
peptide: Ac-VEAKFINYVKNCFR-NH2
notes: The dimer seen by ESI-MS is held by a disulfide bridge through the single cysteine of the peptide; A species of 1874 Da (monomer adduct on the Cys) and oxidised forms were also in the sample; source: synthetic peptide, treated with HFIP, purified through RP-HPLC
For B1, the “stoichiometry N” value worked out at 2.

A word on the stoichiometry N: it is a count of units in the complex or per binding partner.
